Assay results published in paper PMC3472557, “Structural Basis for ASPP2 Recognition by the Tumor Suppressor p73” (Journal of Molecular Biology, 2012).

Molecular target: T1, ankyrin repeat and SH3 domains of human ASPP2 (residues P891–A1128) (human, UniProt Q13625 891-1128)
T1 construct: ASPP2 (53BP2), human, ankyrin repeat and SH3 domains, residues P891-A1128, UniProt Q13625; cloned into pCOEX-LIC1; The limits are stated for the crystallised construct; also called 53BP2; source: E. coli BL21(DE3) R3 pRARE, purified (nickel-Sepharose, TEV protease, HiTrap Q, Superdex 200); not shown: His6, N-terminal, cleaved
T1 sequence (looked up): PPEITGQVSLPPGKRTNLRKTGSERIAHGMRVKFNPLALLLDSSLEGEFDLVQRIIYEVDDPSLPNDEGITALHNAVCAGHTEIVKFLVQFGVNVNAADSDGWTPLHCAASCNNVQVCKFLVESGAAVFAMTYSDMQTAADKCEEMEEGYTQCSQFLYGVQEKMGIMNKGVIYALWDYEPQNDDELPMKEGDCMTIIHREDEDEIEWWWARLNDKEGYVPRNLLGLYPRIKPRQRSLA
Assay: native gel or EMSA; 20 uM ASPP2 with decreasing concentrations of p73 112-315; 4 °C overnight; 50 mM sodium phosphate, pH 7.2, 50 mM NaCl, 5 mM DTT, 50 mM L-arginine, 50 mM L-glutamate; 10% polyacrylamide gel in Tris-glycine, pH 8.3, Coomassie stain
Conditions: both partners purified

binding result: binds
B1: p73 DBD (p73 amino acids 112–315) (domain or fragment, human, UniProt O15350 112-315, looked up)
chain: APVIPSNTDYPGPHHFEVTFQQSSTAKSATWTYSPLLKKLYCQIAKTCPIQIKVSTPPPPGTAIRAMPVYKKAEHVTDVVKRCPNHELGRDFNEGQSAPASHLIRVEGNNLSQYVDDPVTGRQSVVVPYEPPQVGTEFTTILYNFMCNSSCVGGMNRRPILIIITLEMRDGQVLGRRSFEGRICACPGRDRKADEDHYREQQAL
notes: It may be a misprint for 112-311; source: E. coli BL21(DE3) R3 pRARE, purified (said of all proteins)
